Columns and labels:
Assay in all cases: PDX ALL cells co-cultured on hTERT MSCs, ASNase x ibrutinib dilution matrix, microscopy
Format in all cases: cell-based, human
PDX m1338 = conditions: m1338 (7 d), ibrutinib B0=0 to B9=100
Protocol: (§1) After 2-4 months these mice developed full blown leukemia with an immunophenotype and genetic composition that in the large majority of cases is identical to the original material at the time of injection.
(§2) Briefly, hTERT immortalized MSCs were seeded in either a 384 wells format (microscopy) or a 96 wells format (7AAD staining) and allowed to settle for 24 hours prior to the addition of ALL xenografts. […] After 3 and 7 days of incubation, cell death was analyzed using microscopy using live cells staining or flowcytometry using 7AAD to discriminate between live or dead cells.

PDX m838 = conditions: m838 (3 d), ibrutinib B0=0 to B9=100
Protocol: as §1, §2

PDX m877 = conditions: m877 (3 d), ibrutinib B0=0 to B9=100
Protocol: as §1, §2

PDX m4136 = conditions: m4136 (3 d), ibrutinib B0=0 to B9=100
Protocol: as §1, §2

PDX m764 = conditions: m764 (3 d), ibrutinib B0=0 to B9=100
Protocol: as §1, §2

PDX m1717 = conditions: m1717 (3 d), ibrutinib B0=0 to B9=100
Protocol: as §1, §2

PDX m3657 = conditions: m3657 (7 d), ibrutinib B0=0 to B9=100
Protocol: as §1, §2

B1: ASNase: native E. coli ASNase (NCBI WP_000394140.1), used in the in vitro studies (protein, UniProt P00805 23-348, looked up)
L-asparaginase 2: LPNITILATGGTIAGGGDSATKSNYTVGKVGVENLVNAVPQLKDIANVKGEQVVNIGSQDMNDNVWLTLAKKINTDCDKTDGFVITHGTDTMEETAYFLDLTVKCDKPVVMVGAMRPSTSMSADGPFNLYNAVVTAADKASANRGVLVVMNDTVLDGRDVTKTNTTDVATFKSVNYGPLGYIHNGKIDYQRTPARKHTSDTPFDVSKLNELPKVGIVYNYANASDLPAKALVDAGYDGIVSAGVGNGNLYKSVFDTLATAAKTGTAVVRSSRVPTGATTQDAEVDDAKYGFVASGTLNPQKARVLLQLALTQTKDPQQIQQIFNQY
live cells by automated microscopy (table names no quantity) (PDX m1338; ASNase A5=1): 2788 | live cells by automated microscopy (table names no quantity) (PDX m1338; ASNase A6=3): 2166 | live cells by automated microscopy (table names no quantity) (PDX m1338; ASNase A7=10): 1468 | live cells by automated microscopy (table names no quantity) (PDX m1338; ASNase A8=32): 292 | live cells by automated microscopy (table names no quantity) (PDX m1338; ASNase A9 (A=100)): 1 | live cells by automated microscopy (table names no quantity) (PDX m838; ASNase A1=0.01): 2793 | live cells by automated microscopy (table names no quantity) (PDX m838; ASNase A2=0.03): 3003 | live cells by automated microscopy (table names no quantity) (PDX m838; ASNase A3=0.1): 3109 | live cells by automated microscopy (table names no quantity) (PDX m838; ASNase A4=0.3): 2839 | live cells by automated microscopy (table names no quantity) (PDX m838; ASNase A5=1): 2454 | live cells by automated microscopy (table names no quantity) (PDX m838; ASNase A6=3): 3049 | live cells by automated microscopy (table names no quantity) (PDX m838; ASNase A7=10): 2431 | live cells by automated microscopy (table names no quantity) (PDX m838; ASNase A8=32): 175 | live cells by automated microscopy (table names no quantity) (PDX m838; ASNase A9 (A=100)): 18 | live cells by automated microscopy (table names no quantity) (PDX m877; ASNase A1=0.01): 5090 | live cells by automated microscopy (table names no quantity) (PDX m877; ASNase A2=0.03): 4877 | live cells by automated microscopy (table names no quantity) (PDX m877; ASNase A3=0.1): 4455 | live cells by automated microscopy (table names no quantity) (PDX m877; ASNase A4=0.3): 4789 | live cells by automated microscopy (table names no quantity) (PDX m877; ASNase A5=1): 5008 | live cells by automated microscopy (table names no quantity) (PDX m877; ASNase A6=3): 5125 | live cells by automated microscopy (table names no quantity) (PDX m877; ASNase A7=10): 4350 | live cells by automated microscopy (table names no quantity) (PDX m877; ASNase A8=32): 1205 | live cells by automated microscopy (table names no quantity) (PDX m877; ASNase A9 (A=100)): 2 | live cells by automated microscopy (table names no quantity) (PDX m4136; ASNase A1=0.01): 1992 | live cells by automated microscopy (table names no quantity) (PDX m4136; ASNase A2=0.03): 1998 | live cells by automated microscopy (table names no quantity) (PDX m4136; ASNase A3=0.1): 1980 | live cells by automated microscopy (table names no quantity) (PDX m4136; ASNase A4=0.3): 1892 | live cells by automated microscopy (table names no quantity) (PDX m4136; ASNase A5=1): 2157 | live cells by automated microscopy (table names no quantity) (PDX m4136; ASNase A6=3): 2652 | live cells by automated microscopy (table names no quantity) (PDX m4136; ASNase A7=10): 2136 | live cells by automated microscopy (table names no quantity) (PDX m4136; ASNase A8=32): 2172 | live cells by automated microscopy (table names no quantity) (PDX m4136; ASNase A9 (A=100)): 39 | live cells by automated microscopy (table names no quantity) (PDX m764; ASNase A1=0.01): 546 | live cells by automated microscopy (table names no quantity) (PDX m764; ASNase A2=0.03): 1126 | live cells by automated microscopy (table names no quantity) (PDX m764; ASNase A3=0.1): 109 | live cells by automated microscopy (table names no quantity) (PDX m764; ASNase A4=0.3): 250 | live cells by automated microscopy (table names no quantity) (PDX m764; ASNase A5=1): 915 | live cells by automated microscopy (table names no quantity) (PDX m764; ASNase A6=3): 887 | live cells by automated microscopy (table names no quantity) (PDX m764; ASNase A7=10): 594 | live cells by automated microscopy (table names no quantity) (PDX m764; ASNase A8=32): 157 | live cells by automated microscopy (table names no quantity) (PDX m764; ASNase A9 (A=100)): 2 | live cells by automated microscopy (table names no quantity) (PDX m1717; ASNase A1=0.01): 5977 | live cells by automated microscopy (table names no quantity) (PDX m1717; ASNase A2=0.03): 6674 | live cells by automated microscopy (table names no quantity) (PDX m1717; ASNase A3=0.1): 5155 | live cells by automated microscopy (table names no quantity) (PDX m1717; ASNase A4=0.3): 6700 | live cells by automated microscopy (table names no quantity) (PDX m1717; ASNase A5=1): 6589 | live cells by automated microscopy (table names no quantity) (PDX m1717; ASNase A6=3): 5782 | live cells by automated microscopy (table names no quantity) (PDX m1717; ASNase A7=10): 3762 | live cells by automated microscopy (table names no quantity) (PDX m1717; ASNase A8=32): 571 | live cells by automated microscopy (table names no quantity) (PDX m1717; ASNase A9 (A=100)): 24 | live cells by automated microscopy (table names no quantity) (PDX m3657; ASNase A1=0.01): 3562 | live cells by automated microscopy (table names no quantity) (PDX m3657; ASNase A2=0.03): 4473 | live cells by automated microscopy (table names no quantity) (PDX m3657; ASNase A3=0.1): 4173 | live cells by automated microscopy (table names no quantity) (PDX m3657; ASNase A4=0.3): 1159 | live cells by automated microscopy (table names no quantity) (PDX m3657; ASNase A5=1): 3935 | live cells by automated microscopy (table names no quantity) (PDX m3657; ASNase A6=3): 3317 | live cells by automated microscopy (table names no quantity) (PDX m3657; ASNase A7=10): 4220 | live cells by automated microscopy (table names no quantity) (PDX m3657; ASNase A8=32): 723 | live cells by automated microscopy (table names no quantity) (PDX m3657; ASNase A9 (A=100)): 17
